Data published in US20140271651A1.

How the values were obtained:
[1] = biological target: GP73-hFc (human GP73 amino acids 63 to 400 fused at the C-terminus to human IgG1 Fc) (human); assay: sandwich EIA on GP73-hFc, coated NC, second antibody NC-Bt
[2] = biological target: GP73-hFc (human GP73 amino acids 63 to 400 fused at the C-terminus to human IgG1 Fc) (human); assay: sandwich EIA on GP73-hFc, coated 1A-3187, second antibody NC-Bt
[3] = biological target: GP73-hFc (human GP73 amino acids 63 to 400 fused at the C-terminus to human IgG1 Fc) (human); assay: sandwich EIA on GP73-hFc, coated 1A-4246, second antibody NC-Bt
[4] = biological target: GP73-hFc (human GP73 amino acids 63 to 400 fused at the C-terminus to human IgG1 Fc) (human); assay: sandwich EIA on GP73-hFc, coated 1B-3246, second antibody NC-Bt
[5] = biological target: GP73-hFc (human GP73 amino acids 63 to 400 fused at the C-terminus to human IgG1 Fc) (human); assay: sandwich EIA on GP73-hFc, coated 1B-3440, second antibody NC-Bt
[6] = biological target: GP73-hFc (human GP73 amino acids 63 to 400 fused at the C-terminus to human IgG1 Fc) (human); assay: sandwich EIA on GP73-hFc, coated 1B-4863, second antibody NC-Bt
[7] = biological target: GP73-hFc (human GP73 amino acids 63 to 400 fused at the C-terminus to human IgG1 Fc) (human); assay: sandwich EIA on GP73-hFc, coated 1B-4971, second antibody NC-Bt
[8] = biological target: GP73-hFc (human GP73 amino acids 63 to 400 fused at the C-terminus to human IgG1 Fc) (human); assay: sandwich EIA on GP73-hFc, coated NC, second antibody 1A-3187-Bt
[9] = biological target: GP73-hFc (human GP73 amino acids 63 to 400 fused at the C-terminus to human IgG1 Fc) (human); assay: sandwich EIA on GP73-hFc, coated NC, second antibody 1A-4246-Bt
[10] = biological target: GP73-hFc (human GP73 amino acids 63 to 400 fused at the C-terminus to human IgG1 Fc) (human); assay: sandwich EIA on GP73-hFc, coated NC, second antibody 1B-3246-Bt
[11] = biological target: GP73-hFc (human GP73 amino acids 63 to 400 fused at the C-terminus to human IgG1 Fc) (human); assay: sandwich EIA on GP73-hFc, coated NC, second antibody 1B-3440-Bt
[12] = biological target: GP73-hFc (human GP73 amino acids 63 to 400 fused at the C-terminus to human IgG1 Fc) (human); assay: sandwich EIA on GP73-hFc, coated NC, second antibody 1B-4863-Bt
[13] = biological target: GP73-hFc (human GP73 amino acids 63 to 400 fused at the C-terminus to human IgG1 Fc) (human); assay: sandwich EIA on GP73-hFc, coated NC, second antibody 1B-4971-Bt

Chain of GP73-hFc (human GP73 amino acids 63 to 400 fused at the C-terminus to human IgG1 Fc) (human) (chain, as listed by the source limits assumed): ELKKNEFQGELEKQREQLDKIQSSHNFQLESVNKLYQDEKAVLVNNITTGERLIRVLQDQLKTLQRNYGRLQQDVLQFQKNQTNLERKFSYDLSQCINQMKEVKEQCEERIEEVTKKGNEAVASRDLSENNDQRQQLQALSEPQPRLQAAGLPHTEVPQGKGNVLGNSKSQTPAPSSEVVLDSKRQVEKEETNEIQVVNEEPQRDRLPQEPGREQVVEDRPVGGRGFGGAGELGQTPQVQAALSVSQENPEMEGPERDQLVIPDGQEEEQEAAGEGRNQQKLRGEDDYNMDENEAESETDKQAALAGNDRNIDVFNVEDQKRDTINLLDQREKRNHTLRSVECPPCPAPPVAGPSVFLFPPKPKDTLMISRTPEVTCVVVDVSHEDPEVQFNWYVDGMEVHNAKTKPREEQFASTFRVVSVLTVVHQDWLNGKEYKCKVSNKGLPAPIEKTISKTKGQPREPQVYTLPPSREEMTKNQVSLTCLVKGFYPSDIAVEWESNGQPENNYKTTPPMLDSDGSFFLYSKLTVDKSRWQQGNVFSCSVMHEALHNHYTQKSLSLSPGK

sandwich assay signal (A492) [1]: 0.06 A492
sandwich assay signal (A492) [2]: 0.06 A492
sandwich assay signal (A492) [3]: 0.08 A492
sandwich assay signal (A492) [4]: 0.06 A492
sandwich assay signal (A492) [5]: 3.07 A492
sandwich assay signal (A492) [6]: 0.06 A492
sandwich assay signal (A492) [7]: 0.06 A492
sandwich assay signal (A492) [8]: 0.09 A492
sandwich assay signal (A492) [9]: 0.05 A492
sandwich assay signal (A492) [10]: 0.05 A492
sandwich assay signal (A492) [11]: 0.05 A492
sandwich assay signal (A492) [12]: 0.05 A492
sandwich assay signal (A492) [13]: 0.06 A492
Substance: negative control monoclonal antibody
